In assay [1] the target is T1, NativeRPtag(large)_with_Tags_and_Cys (Thermoanaerobacter tengcongensis).
T1 construct: Unlabeled in anisotropy assays; coupled through the engineered N-terminal Cys to SulfoLink agarose or maleimide plates in column, pull-down and ELISA assays
T1 chain: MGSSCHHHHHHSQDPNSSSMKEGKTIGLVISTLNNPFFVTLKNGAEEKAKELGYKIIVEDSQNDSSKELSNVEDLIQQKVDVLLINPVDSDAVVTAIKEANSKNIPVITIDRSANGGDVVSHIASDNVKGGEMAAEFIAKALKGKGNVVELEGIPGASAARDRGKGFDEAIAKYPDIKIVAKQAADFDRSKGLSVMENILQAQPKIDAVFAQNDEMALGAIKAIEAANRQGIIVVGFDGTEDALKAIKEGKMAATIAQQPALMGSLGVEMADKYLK
Nature of the assay: fluorescence anisotropy. Background: In fluorescence polarisation assays a small probe gives low polarisation when free and higher when bound to something large.

In assay [2] the target is T1, NativeRPtag(large)_with_Tags_and_Cys. Nature of the assay: calculated from koff and Kd.
Assay [3] has the same target. Kind of assay: fluorescence anisotropy, competitor chase.
For assay [4] the target is unchanged. Kind of assay: fluorescence anisotropy, association kinetics.

No end group written: not given here. *: point of attachment. RhodamineB = CCN(CC)c1ccc2c(-c3ccccc3C(=O)*)c3ccc(=[N+](CC)CC)cc-3oc2c1

The Kd is the equilibrium constant for the complex coming apart. The low end stands for tighter binding, the high end for weaker binding. One may read the kon as the rate constant with which the complex forms. What is called koff is the rate constant with which the complex falls apart. Consider RPtag(small) Nd2, k3a, e18a (peptide), for which, in assay [1], the Kd was 0.88 nM. Also, the kon in assay [2] is 433000 M⁻¹ s⁻¹. In assay [3], this molecule gave an off-rate constant (koff) of 0.000533 s⁻¹.
RhodamineB-AELKLITKENVQ [RPtag(small) Nd9] yielded a dissociation constant (Kd) in assay [1] of 4.9 nM. The kon in assay [2] was 1.37e+06 M⁻¹ s⁻¹. Also, the koff in assay [3] was determined as 0.00667 s⁻¹.
RhodamineB-PAELKLITKE [RPtag(small) Nd8, Cd3]: in assay [1], the equilibrium dissociation constant (Kd) amounted to 11 nM. In addition, the koff in assay [3] was more than 0.0333 s⁻¹. In addition, in assay [4], the “Keq (S-S*)” value came to 6.5, the “kf (S to S*)” value came to 0.095 min⁻¹ and the “kr (S* to S)” value came out at 0.015 min⁻¹.
Turning to RhodamineB-PAELKLITKA [RPtag(small) Nd8, Cd3, e18a], the Kd in assay [1] is 13 nM. This molecule also came in with a koff in assay [3] of more than 0.0333 s⁻¹.
For the molecule RhodamineB-PAELKLITKENVQ [RPtag(small) Nd8], in assay [1], the dissociation constant Kd came to 0.59 nM. In addition, the kon in assay [2] was 1.55e+06 M⁻¹ s⁻¹. Further, in assay [3], the off-rate constant (koff) came to 0.000917 s⁻¹.
In assay [1], RhodamineB-KIPNFIPAELKLITKANVQ [RPtag(small) Nd2, e18a] gave a Kd of 0.13 nM. In addition, the kon in assay [2] was 1.08e+06 M⁻¹ s⁻¹. The off-rate constant (koff) in assay [3] was found to be 0.000138 s⁻¹. Besides, in assay [4], the “Keq (S-S*)” value turned out to be 0.4, the “kf (S to S*)” value is 0.044 min⁻¹ and the “kr (S* to S)” value worked out at 0.13 min⁻¹.
Regarding RhodamineB-RIANFIPAELKLITKANVQ [RPtag(small) Nd2, k3r, p5a, e18a], in assay [1], the equilibrium dissociation constant (Kd) was 0.26 nM. In assay [2], the kon was 567000 M⁻¹ s⁻¹. Moreover, the koff in assay [3] was 0.000217 s⁻¹.
The like results for RhodamineB-IPNFIPAELKLITKENVQ [RPtag(small) Nd3] were, in that order, 0.14 nM, 1.47e+06 M⁻¹ s⁻¹ and 0.0002 s⁻¹.
On to RhodamineB-LKLITKENVQ [RPtag(small) Nd11], for which, in assay [1], the equilibrium dissociation constant (Kd) is 16 nM. For the same molecule, in assay [2], the kon was 1.18e+06 M⁻¹ s⁻¹. In addition, in assay [3], the koff amounted to 0.02 s⁻¹.
In turn, RhodamineB-GEKIPNFIPAELKLI [RPtag(small) Cd6] yielded a Kd in assay [1] of 200 nM. Besides, in assay [3], the koff is more than 0.0333 s⁻¹.
As to RhodamineB-ELKLIT [RPtag(small) Nd10, Cd5], the Kd in assay [1] turned out to be 250 nM. In assay [3], this molecule showed a koff of more than 0.0333 s⁻¹.
Regarding RhodamineB-KLITKENVQ [RPtag(small) Nd12], in assay [1], the affinity, expressed as Kd, was 520 nM. The koff in assay [3] was more than 0.0333 s⁻¹.
Turning to RhodamineB-ELKLITKENVQ [RPtag(small) Nd10], in assay [1], the dissociation constant Kd was determined as 5.9 nM. The kon in assay [2] was 717000 M⁻¹ s⁻¹. Also, in assay [3], the koff amounted to 0.00417 s⁻¹.
In assay [1], RhodamineB-PNFIPAELKLITKENVQ [RPtag(small) Nd4] returned a Kd of 0.3 nM. Moreover, the kon in assay [2] is 1.57e+06 M⁻¹ s⁻¹. Further, the koff in assay [3] was 0.000467 s⁻¹.
The like results for RhodamineB-NFIPAELKLITKENVQ [RPtag(small) Nd5] were, in that order, 0.59 nM, 1.6e+06 M⁻¹ s⁻¹ and 0.000933 s⁻¹.
The like results for RhodamineB-IANFIPAELKLITKANVQ [RPtag(small) Nd3, p5a, e18a] were, in that order, 0.63 nM, 1.53e+06 M⁻¹ s⁻¹ and 0.000967 s⁻¹.
The like results for RhodamineB-GEAIPNFIPAELKLITKENVQ [RPtag(small) k3a] were, in that order, 0.49 nM, 183000 M⁻¹ s⁻¹ and 8.83e-05 s⁻¹.
Regarding RhodamineB-GEKIPNFIPAELKLITAENVQ [RPtag(small) k17a], the dissociation constant Kd in assay [1] worked out at 0.54 nM. For the same molecule, the on-rate constant (kon) in assay [2] is 167000 M⁻¹ s⁻¹. The off-rate (koff) in assay [3] came out at 9.5e-05 s⁻¹.
In assay [1], RhodamineB-GEKIPNFIPAELKAITKENVQ [RPtag(small) l14a] had a Kd of 8.9 nM. The koff in assay [3] is more than 0.0333 s⁻¹. Besides, in assay [4], the “Keq (S-S*)” value was determined as 1.8, the “kf (S to S*)” value came out at 0.075 min⁻¹ and the “kr (S* to S)” value turned out to be 0.044 min⁻¹.
In assay [1], RhodamineB-FIPAELKLITKENVQ [RPtag(small) Nd6] returned a dissociation constant (Kd) of 0.54 nM. In addition, the association rate constant (kon) in assay [2] was 2e+06 M⁻¹ s⁻¹. The same molecule showed a koff in assay [3] of 0.00108 s⁻¹.
RhodamineB-FIPAELKLITK [RPtag(small) Nd6, Cd4]: the Kd in assay [1] was found to be 9.9 nM. Moreover, the koff in assay [3] was more than 0.0333 s⁻¹.
In assay [1], RhodamineB-IPAELKLITKENVQ [RPtag(small) Nd7] returned a dissociation constant Kd of 2.4 nM. For the same molecule, in assay [2], the on-rate (kon) is 300000 M⁻¹ s⁻¹. The koff in assay [3] is 0.0007 s⁻¹.
Turning to RhodamineB-GEKIPNFIPAELKL [RPtag(small) Cd7], the affinity in assay [1], expressed as Kd, was 30000 nM. In assay [3], this molecule registered a koff of more than 0.0333 s⁻¹.
RhodamineB-LITKENVQ [RPtag(small) Nd13]: the Kd in assay [1] was 84000 nM. In assay [3], the off-rate constant (koff) was more than 0.0333 s⁻¹.
The molecule RhodamineB-ELKLITKE [RPtag(small) Nd10, Cd3] displayed a dissociation constant Kd in assay [1] of 57 nM. Further, the off-rate constant (koff) in assay [3] was more than 0.0333 s⁻¹. For the same molecule, in assay [4], the “kf (S to S*)” value was 0.32 min⁻¹ and the “kr (S* to S)” value was 0.05 min⁻¹.
RhodamineB-ELKLITKA [RPtag(small) Nd10, Cd3, e18a] returned an equilibrium dissociation constant (Kd) in assay [1] of 71 nM. Moreover, the koff in assay [3] is more than 0.0333 s⁻¹.
For the molecule RhodamineB-GEKIPNFIPAELKLIT [RPtag(small) Cd5], in assay [1], the Kd was found to be 3.6 nM. The association rate constant (kon) in assay [2] was 1.83e+06 M⁻¹ s⁻¹. The same molecule showed a koff in assay [3] of 0.0065 s⁻¹.
For RhodamineB-FIPAELKLITKE [RPtag(small) Nd6, Cd3], binding in assay [1] was put at a Kd of 7.3 nM. Moreover, the koff in assay [3] was more than 0.0333 s⁻¹.
Consider RhodamineB-FIPAELKLITKA [RPtag(small) Nd6, Cd3, e18a], for which the Kd in assay [1] is 8.2 nM. The molecule further came in with a koff in assay [3] of more than 0.0333 s⁻¹.
Consider RhodamineB-AIANFIPAELKLITKENVQ [RPtag(small) Nd2, k3a, p5a], for which, in assay [1], the Kd turned out to be 0.55 nM. Also, the on-rate constant (kon) in assay [2] was 400000 M⁻¹ s⁻¹. In addition, the off-rate constant (koff) in assay [3] turned out to be 0.00015 s⁻¹.
